Results published in PMC4263517.

Biological target: Hfq (Pseudomonas aeruginosa (PAO1?)) (UniProt Q9HUM0)
Experiment: EMSA
Conditions: biotinylated UTP 1:3 to unlabeled UTP; 50 mM Tris-HCl pH 7.5, 250 mM NaCl, 250 mM KCl (Hfq annealing buffer); RNA renatured 80 C 1 min; room temperature 20 min; 7.5% TGX native gel

Chain of Hfq (Pseudomonas aeruginosa (PAO1?)) (Q9HUM0 whole entry): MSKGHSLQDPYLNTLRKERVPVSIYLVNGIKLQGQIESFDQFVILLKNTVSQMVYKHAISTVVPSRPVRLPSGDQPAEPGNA

AACUGGUCGCGAGAUCAGCCGGUAAGCUGAGAGACCCACGCAGUCGGACUCUUCAGAUUAUCUCCUCAUCAGGCUAAUCACGGUUUUUGACCCGGCACUUUGCCGGGUCUUUUUUUGCCUGCGAUUCGGCCGGAGACGACCGUUCAUCGGCUGGCGAUGGAAUGAAUGAGAACCGGCUUGACCUGAUAAUGAGAAUAGUUAUUAUUACACCAACUGGUCGCGAGGCCAGCAGGUAAGCUGAGAGACCAAGCAGUCGGACUCUUCAGAUUAUCUCCUCAUCAGGCUAAUCACGGUUUCGACCCGGCACUUUGCCGGGUCUUUUUUU [PrrH sRNA]
binding: 11 ng/µL
